System: Escherichia coli TOP10
Test: shrunken log2 fold change of peptide-encoding DNA abundance (4.5 h post-induction vs induction); higher = less antimicrobial activity (less host growth inhibition)
Settings: time post-induction: 4.5 h; library: site-saturation at positions 5, 18, 19, 20
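Also: peptides expressed intracellularly from a pBAD plasmid library in pooled LB shake-flask culture, induced with 0.3% L-arabinose, DNA abundance read by NGS, three biological replicates, DESeq2 with apeglm shrinkage.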

Sequence	shrunken log2 fold change
RRIRSRPPRLPRPRPRPHHTPRP	-0.625
RRIRTRPPRLPRPRPRPDDWPRP	0.276
RRIRYRPPRLPRPRPRPTVSPRP	-0.288
RRIRPRPPRLPRPRPRPNIPPRP	-0.355
RRIRGRPPRLPRPRPRPTCVPRP	1.04
RRIRVRPPRLPRPRPRPNMKPRP	-0.524
RRIRPRPPRLPRPRPRPFACPRP	-0.0209
RRIRPRPPRLPRPRPRPIPHPRP	-0.163
RRIRDRPPRLPRPRPRPHSDPRP	-0.115
RRIRKRPPRLPRPRPRPFGKPRP	0.144
RRIRWRPPRLPRPRPRPHDNPRP	-0.114
RRIRSRPPRLPRPRPRPDWKPRP	-0.0322
RRIRGRPPRLPRPRPRPDFFPRP	1.1
RRIRPRPPRLPRPRPRPKFLPRP	0.0917
RRIRGRPPRLPRPRPRPNNHPRP	-0.15
RRIRRRPPRLPRPRPRPTGDPRP	0.0418
RRIRFRPPRLPRPRPRPERKPRP	0.0154
RRIRDRPPRLPRPRPRPGWAPRP	0.718
RRIRVRPPRLPRPRPRPETFPRP	-0.0527
RRIRDRPPRLPRPRPRPSYRPRP	0.0164
RRIRMRPPRLPRPRPRPINGPRP	0.0854
RRIRMRPPRLPRPRPRPNKPPRP	-0.0387
RRIRMRPPRLPRPRPRPTPDPRP	1.39
RRIRERPPRLPRPRPRPDGSPRP	0.0355
RRIRGRPPRLPRPRPRPLIRPRP	0.0808

Sequence	shrunken log2 fold change
RRIRSRPPRLPRPRPRPCCRPRP	-0.0822
RRIRTRPPRLPRPRPRPKGIPRP	0.0275
RRIRTRPPRLPRPRPRPPCQPRP	-0.215
RRIRVRPPRLPRPRPRPEKEPRP	0.0209
RRIRDRPPRLPRPRPRPRALPRP	0.226
RRIRWRPPRLPRPRPRPQSNPRP	-0.124
RRIRARPPRLPRPRPRPALWPRP	0.833
RRIRCRPPRLPRPRPRPMPIPRP	-0.197
RRIRFRPPRLPRPRPRPMCDPRP	0.226
RRIRIRPPRLPRPRPRPDKHPRP	-0.979
RRIRGRPPRLPRPRPRPKYRPRP	0.000233
RRIRGRPPRLPRPRPRPFWIPRP	-0.432
RRIRVRPPRLPRPRPRPNNGPRP	-0.497
RRIRYRPPRLPRPRPRPKKWPRP	-0.113
RRIRLRPPRLPRPRPRPSALPRP	-0.0136
RRIRGRPPRLPRPRPRPDQEPRP	1.05
RRIRRRPPRLPRPRPRPRQHPRP	0.288
RRIRERPPRLPRPRPRPYTLPRP	-0.338
RRIRWRPPRLPRPRPRPYDRPRP	0.0155
RRIRVRPPRLPRPRPRPMNKPRP	-0.403
RRIRYRPPRLPRPRPRPNDAPRP	0.011
RRIRKRPPRLPRPRPRPILFPRP	-0.0861
RRIRHRPPRLPRPRPRPSCWPRP	-0.0721
RRIRRRPPRLPRPRPRPSYPPRP	-0.115
RRIRARPPRLPRPRPRPLVHPRP	-0.139

Sequence	shrunken log2 fold change
RRIRTRPPRLPRPRPRPDPYPRP	0.001
RRIRWRPPRLPRPRPRPRWCPRP	-0.00787
RRIRPRPPRLPRPRPRPCCHPRP	0.0505
RRIRPRPPRLPRPRPRPHSEPRP	-0.0259
RRIRWRPPRLPRPRPRPIVIPRP	-0.353
RRIRGRPPRLPRPRPRPECRPRP	1.32
RRIRKRPPRLPRPRPRPYQYPRP	-0.0576
RRIRPRPPRLPRPRPRPWCWPRP	0.233
RRIRNRPPRLPRPRPRPDGPPRP	0.01
RRIRHRPPRLPRPRPRPQDDPRP	0.0649
RRIRLRPPRLPRPRPRPPMMPRP	-0.149
RRIRLRPPRLPRPRPRPLGGPRP	0.157
RRIRKRPPRLPRPRPRPCHPPRP	-0.336
RRIRGRPPRLPRPRPRPYQKPRP	-0.00887
RRIRARPPRLPRPRPRPNCLPRP	-0.111
RRIRYRPPRLPRPRPRPAGGPRP	0.148
RRIRARPPRLPRPRPRPAIQPRP	0.228
RRIRTRPPRLPRPRPRPRGRPRP	0.593
RRIRIRPPRLPRPRPRPKVKPRP	-0.127
RRIRGRPPRLPRPRPRPNAFPRP	0.665
RRIRERPPRLPRPRPRPLQAPRP	0.167
RRIRPRPPRLPRPRPRPMWVPRP	-0.138
RRIRERPPRLPRPRPRPAYCPRP	0.0672
RRIRARPPRLPRPRPRPQPDPRP	0.254
RRIRSRPPRLPRPRPRPCAIPRP	-0.475

— the supplement of paper PMC9112550, “Optimization of the antimicrobial peptide Bac7 by deep mutational scanning” (BMC Biology, 2022)
